Data reported in PMC5442324, “Zinc is a potent and specific inhibitor of IFN-λ3 signalling” (Nature Communications, 2017).

What was measured:
IFN-α (Roferon-A) = IFN-α (Roferon-A) (UniProt P01563); test: zinc IMAC resin binding and SDS-PAGE; 200 ng IFN-α or IFN-λ3 on IMAC-Select gel charged with ZnSO4, 4 °C, 50 mM NaH2PO4, 300 mM NaCl, pH 8.0; eluted with 100 mM EDTA; SDS-PAGE, SYPRO ruby; bands read as monomer and dimer
[1] = target: the molecule itself; test: as above

| stoichiometry N (IFN-α (Roferon-A)) | Molecule | stoichiometry N [1] |
| --- | --- | --- |
| 2 | IFN-α (Roferon-A) (from UniProt P01563 24-188) (ligand) | – |
| – | recombinant human IFN-λ3 (ligand, UniProt Q8IZI9 22-196, looked up, IFN-λ3 (interferon lambda 3), human, recombinant, R&D Systems; (Cys169); also called interferon lambda 3; IFNL3; source: bought: R&D Systems) VPVARLRGALPDARGCHIAQFKSLSPQELQAFKRAKDALEESLLLKDCKCRSRLFPRTWDLRQLQVRERPVALEAELALTLKVLEATADTDPALGDVLDQPLHTLHHILSQLRACIQPQPTAGPRTRGRLHHWLHRLQEAPKKESPGCLEASVTFNLFRLLTRDLNCVASGDLCV | 2 |
